Experimental data taken from patent US7838288B2, “Modulators of odorant receptors” (Duke University, priority 2004, dated 2010).

How the values were obtained:
Type in all cases: cell-based, mouse
OR-S6/S79 = assay: CRE-luciferase reporter gene assay, OR-S6/S79; details: 293T cells expressing RTP1 variant
Procedure: Four ORs (S6/79, S18, S46 and S50) previously assayed using other techniques (see, e.g., Malnic, B., et al. (1999) Cell 96, 713-723; herein incorporated by reference in its entirety) were tested against an assay panel of aliphatic alcohols, aldehydes and acids and some other odorants. Additionally, five “orphan” class I ORs (MOR23-1, MOR31-4, MOR31-6, MOR32-5 and MOR32-11) whose cognate ligands were unknown were tested. At a suprathreshold concentration of 100 uM, all these ORs were odorant selective, responding to only a small subset of the odorants tested (see FIG. 11A). This specificity was retained at lower, more physiologically relevant concentrations. Many of these ORs responded to odorants present in micromolar concentrations. The cell-surface expression of these ORs by living-cell immunofluorescence were evaluated. Some ORs (S18, MOR31-4, MOR31-6 and MOR32-5) were strongly expressed while other ORs (S6, S50, MOR23-1, MOR32-11) were weakly expressed (see FIG. 12). The present invention is not limited to a particular mechanism. Indeed, an understanding of the mechanism is not necessary to practice the present invention. […] Finally, two additional orphan class II ORs, MOR203-1 and olfr62, were tested against a panel of 139 odorants. […] Olfr62 responded to coumarine and piperonal (see FIG. 11C). […] When parental 293T cells for these ORs were used in this luciferase assay, little or no response to the odorants was observed. The present invention is not limited to a particular mechanism. Indeed, an understanding of the mechanism is not necessary to practice the present invention.
An expression system has been established that permits rapid identification of ligands for ORs. This system was tested with twelve ORs. Four of the tested ORs (S6/S79, S18, S46, and S50) were expressed in single olfactory neurons responding to aliphatic odorants (see, e.g., Malnic, B., et al. (1999) Cell 96, 713-723; herein incorporated by reference in its entirety). The response profiles of OR-S50, but not that of OR-S18 agreed with the previous report (see, e.g., Malnic, B., et al. (1999) Cell 96, 713-723; herein incorporated by reference in its entirety). […] In experiments conducted during the course of the present invention, OR-S6/S79 responded to nonanedioic acid but not to heptanoic acid or octanoic acid. The present invention is not limited to a particular mechanism. […] When multiple single olfactory neurons that expressed the same OR were recorded against the same set of odorants using calcium imaging, their response profiles were similar but different (see, e.g., Bozza, T., et al. (2002) J Neurosci 22, 3033-3043; herein incorporated by reference in its entirety).
Dual-Glo system (Promega) for luciferase assay was used. […] Luminescence was measured using Wallac Victor 1420 (Perkin-Elmer). […]

S6 = assay: Living-cell staining of cell-surface S6; details: accessory protein co-transfected in 293T cells
Procedure: 293T cells were maintained in minimal essential medium containing 10% fetal bovine serum (M10). Lipofectamine 2000 (Invitrogen) was used for transfection. In live-cell staining, 16 hours after transfection, cells were incubated in M10 containing anti rhodopsin antibody, 4D2 (see, e.g., Laird, D. W., and Molday, R. S. (1988) Invest Opthalmol V is Sci 29, 419-428; herein incorporated by reference in its entirety) and 15 mM NaN3 at 4 degrees C. for 1 hour. After washing, cells were incubated with Cy3-conjugated anti mouse IgG (Jackson Immunologicals), washed and mounted. For FACS analysis, 4D2 and PE-conjugated anti mouse IgG (Jackson Immunologicals) were used to monitor the Rho tagged receptor expression. Anti HA rabbit antibodies (Sigma) and Alexa 488 conjugated anti rabbit IgG (Molecular Probes) was used to stain the HA-β2 adrenergic receptor. To establish the Hana3a cells, 1 ug/ml of puromycin was used for selection. 96 colonies were picked and assayed using luciferase assay using OREG.

olfr62 = assay: CRE-luciferase reporter gene assay, olfr62; details: 293T cells expressing RTP1 variant
Summary of the method: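 Receptor-transfected 293T cells carrying CRE-luciferase plus SV40-Renilla control, switched to CD293 medium 12 h post-transfection, then exposed to odorants for 4 h at 37 °C. Signal is dual-luciferase normalized activity, [Luc(N) − Luc(0)]/Renilla.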

S6 activity as indicated by luciferase expression (OR-S6/S79): Increased enhancement
OLFR62 activity as indicated by luciferase expression (olfr62): Increased enhancement
B1: RTP1-A1: RTP1 variant from deleting portions of RTP1-A; murine SEQ ID NO: 46, human SEQ ID NO: 47 (protein, listed as Mus musculus)
chain: MCKSVTTGEWKKVFYEKMEEVKPADSWDFIIDPNLKHNVLAPGWKQYLELHASGRFHCSWCWHTWQSPHVVILFHMYLDKAQRAGSVRMRVFKQLCYECGTARLDESSMLEENIESLVDNLITSLREQCYGERGGHYRIHVASRQDNRRHRGEFCEACQEGIVHWKPSEKLLEEEATTYTFSRAPSPTKPQAETGSGCNFCSIPWCLFWATVLMLIIYLQFSFRTSV
cell-surface expression of S6 (S6): Increased cell-surface staining
